Common to all, as to assay: proximity ligation
In experiment [1] the target is double-mutant V5-RTEL1^C1252A/C1255A (mouse) (mouse).
Experiment [2] has as its target single-mutant V5-RTEL1^R1237H (mouse) (mouse).
The target in experiment [3] is full-length WT V5-RTEL1 (mouse) (mouse).
Sequence of full-length WT V5-RTEL1 (mouse) (mouse) (Q0VGM9 whole entry): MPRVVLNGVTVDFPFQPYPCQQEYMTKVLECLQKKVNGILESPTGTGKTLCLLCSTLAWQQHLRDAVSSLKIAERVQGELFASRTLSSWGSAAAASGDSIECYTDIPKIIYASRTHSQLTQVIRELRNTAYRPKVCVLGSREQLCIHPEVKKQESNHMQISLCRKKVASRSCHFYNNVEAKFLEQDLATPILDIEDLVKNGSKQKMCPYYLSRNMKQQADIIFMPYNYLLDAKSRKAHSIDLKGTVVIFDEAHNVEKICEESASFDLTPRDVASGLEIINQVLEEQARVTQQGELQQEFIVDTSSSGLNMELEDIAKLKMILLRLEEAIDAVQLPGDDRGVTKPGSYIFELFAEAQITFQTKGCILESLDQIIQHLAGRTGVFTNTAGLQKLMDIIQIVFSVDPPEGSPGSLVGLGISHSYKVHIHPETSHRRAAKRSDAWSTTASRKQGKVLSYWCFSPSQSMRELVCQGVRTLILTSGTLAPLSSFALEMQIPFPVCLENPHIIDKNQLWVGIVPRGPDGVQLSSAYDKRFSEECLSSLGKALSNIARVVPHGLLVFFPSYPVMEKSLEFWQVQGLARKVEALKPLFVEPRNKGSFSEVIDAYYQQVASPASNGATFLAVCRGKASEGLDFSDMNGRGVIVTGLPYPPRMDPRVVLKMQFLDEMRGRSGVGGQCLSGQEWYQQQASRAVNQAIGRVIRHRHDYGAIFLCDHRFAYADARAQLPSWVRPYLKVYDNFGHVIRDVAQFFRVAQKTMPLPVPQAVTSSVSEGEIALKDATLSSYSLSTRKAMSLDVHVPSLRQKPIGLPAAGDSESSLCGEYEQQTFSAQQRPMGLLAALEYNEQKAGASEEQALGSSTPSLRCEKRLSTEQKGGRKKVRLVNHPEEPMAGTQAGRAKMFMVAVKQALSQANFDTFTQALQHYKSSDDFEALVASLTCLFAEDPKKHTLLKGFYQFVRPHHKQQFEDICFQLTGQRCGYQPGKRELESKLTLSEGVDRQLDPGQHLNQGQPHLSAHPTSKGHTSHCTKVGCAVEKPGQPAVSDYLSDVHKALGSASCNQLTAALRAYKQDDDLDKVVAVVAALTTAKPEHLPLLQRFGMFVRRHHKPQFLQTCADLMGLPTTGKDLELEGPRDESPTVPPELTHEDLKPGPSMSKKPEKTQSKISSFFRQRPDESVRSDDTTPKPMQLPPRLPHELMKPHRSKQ

As for “endogenous PCNA (proliferating cell nuclear antigen) (from UniProt P17918 1-261) (natural protein)”, the PLA foci per nucleus (PLA foci per nucleus) in experiment [1] stood at 11.6; in experiment [2], 13.4. Besides, the PLA foci per nucleus (foci per nucleus) in experiment [3] turned out to be 11.5.

The values are drawn from paper PMC4339303.
